Laboratory results reported in patent publication US20090029005A1.
Where “and” joins values, the source holds several entries; their conditions need not be identical. Equal values may be shown once.

What was measured:
[1] = biological target: Angiotensin-I Converting Enzyme (ACE); assay: cell-based or functional assay
[2] = biological target: Angiotensin-I Converting Enzyme; assay: cell-based or functional assay

Chain of Ovotransferrin (TRFE_CHICK), not hydrolysed and not digested (P02789 20-705 limits assumed): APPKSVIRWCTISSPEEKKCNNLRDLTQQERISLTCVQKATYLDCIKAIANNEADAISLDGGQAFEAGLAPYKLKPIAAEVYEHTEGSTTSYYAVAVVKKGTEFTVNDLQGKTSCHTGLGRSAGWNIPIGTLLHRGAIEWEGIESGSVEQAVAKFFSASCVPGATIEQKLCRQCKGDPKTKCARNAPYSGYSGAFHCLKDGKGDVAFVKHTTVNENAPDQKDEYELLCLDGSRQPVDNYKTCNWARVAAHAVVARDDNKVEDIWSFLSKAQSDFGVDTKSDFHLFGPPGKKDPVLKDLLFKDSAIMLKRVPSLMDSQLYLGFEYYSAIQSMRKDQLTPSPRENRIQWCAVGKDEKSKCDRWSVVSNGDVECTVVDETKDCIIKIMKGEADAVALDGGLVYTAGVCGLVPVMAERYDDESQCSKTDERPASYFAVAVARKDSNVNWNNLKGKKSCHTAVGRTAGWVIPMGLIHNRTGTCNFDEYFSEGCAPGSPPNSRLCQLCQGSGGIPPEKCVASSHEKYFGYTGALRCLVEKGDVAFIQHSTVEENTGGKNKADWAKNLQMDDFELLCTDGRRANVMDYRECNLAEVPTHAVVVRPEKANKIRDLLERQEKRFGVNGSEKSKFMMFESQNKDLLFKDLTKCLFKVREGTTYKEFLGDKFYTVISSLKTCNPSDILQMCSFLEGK

Substance	inhibition (%) at 0.0625 mg/ml [1]	inhibition (%) at 0.125 mg/ml [1]	inhibition (%) at 0.25 mg/ml [1]	inhibition (%) at 0.5 mg/ml [1]	inhibition (%) at 1 mg/ml [1]	inhibition (%) at 2 mg/ml [1]	ACE inhibition (% inhibition) at 0.5 mg/ml [1]	other results
EggWhite 1102/Protex 6L hydrolysate	16.3% and 4.9%	24.7% and 19%	33.2% and 41.7%	47% and 49.2%	58.4% and 66%	60.2% and 71.8%	–	–
EggWhite 1101/Alcalase hydrolysate	19.6% and 10.7%	34.2% and 12.8%	46.5% and 32.1%	63.1% and 39.9%	66.5% and 71.7%	–	–	–
EggWhite 1102/Promod 258P hydrolysate	–	–	42.8% and 19.5%	62% and 42.7%	75% and 61.9%	91.3% and 76.8%	–	–
Ovalbumin/Alcalase hydrolysate	23.4% and 3.1%	7.3% and 16.2%	–	–	–	89.2% and 74.8%	–	–
Egg yolk/Protex 6L hydrolysate	15% and 22.4%	26.6% and 37%	41.3% and 62.7%	–	–	105% and 89.9%	–	–
Ovomucin/Alcalase hydrolysate	24% and 22%	25.5% and 33.2%	37.1% and 43.8%	57.3% and 55.2%	67.2% and 69.9%	81.7% and 86%	56% and 57% and 55%	ACE activity IC50; total hydrolysis time 11.5 hours (batch for animal study) [1]: 230 µg/mL; ACE inhibition IC50; hydrolysis 4 h, 2% enzyme, DH 0% [1]: > 2000 µg/mL; ACE inhibition IC50; hydrolysis 5 h, 4% enzyme, DH 5.0% [1]: 760 µg/mL; ACE inhibition IC50; hydrolysis 5 h, 4% enzyme, DH 12.0 [1]: 540 µg/mL; ACE inhibition IC50; hydrolysis 6 h, 4% enzyme, DH 7.7% [1]: 660 µg/mL; ACE inhibition IC50; hydrolysis 7 h, 6% enzyme, DH 12.9% [1]: 450 µg/mL; ACE inhibition IC50; hydrolysis 7.5 h, 6% enzyme, DH 15.0% [1]: 430 µg/mL; ACE inhibition IC50; hydrolysis 8 h, 6% enzyme, DH 21.7 [1]: 390 µg/mL; ACE inhibition IC50; hydrolysis 10.5 h, 8% enzyme, DH 21.2 [1]: 250 µg/mL; ACE inhibition IC50; hydrolysis 10.5 h, 8% enzyme, DH 23.9 [1]: 210 µg/mL; ACE inhibition IC50; hydrolysis 13.5 h, 10% enzyme, DH 22.0 [1]: 180 µg/mL; ACE inhibition IC50; hydrolysis 16.5 h, 12% enzyme, DH 21.1 [1]: 180 µg/mL
Ovalbumin/Promod 258P hydrolysate	14% and 8.7%	40.7% and 23.2%	37.3% and 33.8%	48.6% and 57.6%	87.5% and 67%	103% and 78.2%	53% and 49% and 58%	–
Ovomucin, not hydrolysed and not digested	–	–	–	–	–	–	–	ACE inhibition (%) at 0.019 mg/ml, Hip-His-Leu/TNBS microtiter assay [1]: -0.4%; ACE inhibition (%) at 0.056 mg/ml, Hip-His-Leu/TNBS microtiter assay [1]: 5.2%; ACE inhibition (%) at 0.167 mg/ml, Hip-His-Leu/TNBS microtiter assay [1]: 2.2%; ACE inhibition (%) at 0.500 mg/ml, Hip-His-Leu/TNBS microtiter assay [1]: 2.1%
Ovalbumin hydrolysate (enzyme of the column not resolvable: PEM, Newlase F or Alcalase)	-6.8% and 0%	0% and 1.6%	17.4% and 13.4%	31.1% and 24.6%	18.2% and 41.3%	87.8% and 64.4%	–	–
EggWhite 1101/Protex 6L hydrolysate	17% and 11.9%	20.2% and 23%	31.3% and 33.3%	50.6% and 44.4%	63.2% and 62.2%	–	–	–
Ovotransferrin/Protex 6L hydrolysate	13.7% and 12%	30.6% and 19.1%	44.4% and 34.4%	60.2% and 58.6%	76.8% and 70.2%	97.3% and 88%	59% and 60%	–
Egg White/Alcalase (LS 250903)	–	–	–	–	–	–	–	IC50 (mg/mL), ACE inhibition (Hip-His-Leu assay) [2]: 0.46 mg/mL
Egg yolk/PEM hydrolysate	15.4% and 25.4%	28.8% and 52.8%	45.3% and 36.6%	62.1% and 52.9%	69.8% and 64.6%	99.7% and 96.6%	58% and 62% and 53%	–
Ovotransferrin (TRFE_CHICK), not hydrolysed and not digested (from UniProt P02789 20-705)	–	–	–	–	–	–	–	ACE inhibition (%) at 0.019 mg/ml, Hip-His-Leu/TNBS microtiter assay [1]: 0.7%; ACE inhibition (%) at 0.056 mg/ml, Hip-His-Leu/TNBS microtiter assay [1]: -4.1%; ACE inhibition (%) at 0.167 mg/ml, Hip-His-Leu/TNBS microtiter assay [1]: 0.7%; ACE inhibition (%) at 0.500 mg/ml, Hip-His-Leu/TNBS microtiter assay [1]: -0.3%
Ovomucin/Newlase F hydrolysate	-13.7% and 7.8%	–	30.6% and 18.6%	42.5% and 31.3%	45.7% and 49.2%	59.6% and 49.2%	–	–
Lysozyme/Alcalase hydrolysate	35.2% and 14.3%	–	–	82.1% and 58.1%	81.3% and 79.9%	126% and 102%	70% and 82% and 58%	–
Lysozyme/PEM hydrolysate	29.2% and 27.3%	38% and 35.1%	49.7% and 49.5%	54.7% and 58%	–	102% and 123%	56% and 55% and 58%	–

Substance	inhibition (%) at 0.0625 mg/ml [1]	inhibition (%) at 0.125 mg/ml [1]	inhibition (%) at 0.25 mg/ml [1]	inhibition (%) at 0.5 mg/ml [1]	inhibition (%) at 1 mg/ml [1]	inhibition (%) at 2 mg/ml [1]	ACE inhibition (% inhibition) at 0.5 mg/ml [1]	other results
EggWhite 1102/Alcalase hydrolysate	18.2% and 2.4%	36.4% and 16.7%	43% and 23.3%	58.8% and 48.1%	76.9% and 67%	86.3% and 65.8%	–	–
Ovomucin/PEM hydrolysate	25.9% and 5.5%	13.3% and 9.1%	41.1% and 19.6% and 36.1%	66.3% and 43.1% and 48.6%	51.3% and 62.3% and 66%	73.1% and 78.1% and 88%	–	–
Ovotransferrin/Promod 258P hydrolysate	18.4% and -1%	40% and 18.8%	41.1% and 45.1%	57.7% and 66.3%	85.2% and 86.2%	121% and 104%	62% and 58% and 66%	–
Lysozyme (Lysozyme C, LYC_CHICK), not hydrolysed and not digested (from UniProt P00698 19-147) (enzyme)	–	–	–	–	–	–	–	ACE inhibition (%) at 0.167 mg/ml, Hip-His-Leu/TNBS microtiter assay [1]: -4.7%
Egg yolk/Newlase F hydrolysate	15.5% and 21.6%	21.7% and 18.2%	24.1% and 36.1%	51.3% and 57.3%	69.5% and 80%	–	57% and 51%	–
Ovalbumin/Newlase F hydrolysate	3.7%	16.3%	23.5%	45.8%	55.9%	82.5%	–	–
Ovotransferrin/Newlase F hydrolysate	26.9% and 28.7%	33.7% and 50.9%	58.6% and 51.6%	70.5% and 69.1%	96.1% and 83.1%	–	70% and 71% and 69%	inhibition (%) at 2 mg/ml (*Absorption above 3) [1]: 64.3% and 46.8%
Ovomucin/Protex 6L hydrolysate	24.9% and 5.1%	31.4% and 16.3%	47.8% and 30.5%	68.5% and 49%	87.6% and 65%	90.8% and 65.8%	59% and 69% and 49%	–
Ovomucin/PTN hydrolysate	–	19.7% and 16.9%	43.8% and 21%	55.3% and 44.7%	65.5% and 50.9%	–	50% and 55% and 45%	–
Lysozyme/Protex 6L hydrolysate	42.4% and 30.9%	42.2% and 44.6%	65.8% and 58.3%	73.9% and 68.7%	83% and 83.5%	–	71% and 74% and 69%	–
Lysozyme/PTN hydrolysate	18.9% and 6.4%	–	–	62.4% and 42%	75.7% and 75.8%	79.7% and 103%	52% and 62% and 42%	–
Ovotransferrin/PEM hydrolysate	-19.4% and -10.7%	–	9.8% and 31.8%	52.4% and 56.6%	69.1% and 73.8%	–	55% and 52% and 57%	–
Egg yolk/PTN hydrolysate	–	–	27.6% and 44.3%	–	75.7% and 59.9%	96.9% and 78.1%	–	–
EggWhite 1101/Promod 258P hydrolysate	27.9% and 20%	40.3% and 36.2%	45% and 33.9%	62.8% and 47.2%	77.9% and 78.4%	–	–	–
Ovotransferrin/PTN hydrolysate	–	28.3% and 37.9%	51% and 49.8%	67.8% and 59.9%	80.3% and 84.3%	–	64% and 68% and 60%	–
Egg yolk/Alcalase hydrolysate	30.9% and 6.5%	45.7% and 25.1%	59.1% and 41.9%	75.8% and 61%	–	100%	68% and 76% and 61%	–
Ovalbumin/PEM hydrolysate	–	–	–	51.4% and 27.7%	57.3% and 36.3%	61% and 39.1%	–	–
